Data on 3 compounds can be found in publication PMC9204233, “Characterization of Catechol-1,2-Dioxygenase (Acdo1p) From Blastobotrys raffinosifermentans and Investigation of Its Role in the Catabolism of Aromatic Compounds” (Frontiers in Microbiology, 2022).

Series [1] has as its target T1, Acdo1-6hp (Acdo1p, catechol-1,2-dioxygenase) (Blastobotrys raffinosifermentans, UniProt A0A060T9I8).
T1 construct: expressed in B. raffinosifermentans G1212, HisTrap purified
The experiment in a line: spectrophotometric, 2-hydroxymuconic acid formation at […] nm. Format: biochemical. Conditions: 50 mM Tris-HCl pH 7.5, ~20 °C.

Series [2] has as its target Blastobotrys raffinosifermentans catechol-1,2-dioxygenase with C-terminal 6His-tag (Acdo1-6hp) (Blastobotrys raffinosifermentans LS3). The experiment in a line: SEC; gel filtration on Superdex 200; 50 mM Tris (pH 8), 0.15 M NaCl; flow 1 mL/min; mass against a calibration curve (blue dextran, ferritin, catalase, bovine albumin, RNAse A, vitamin B12); 'indicative' molecular mass. A general note: Size exclusion chromatography separates by hydrodynamic size, large species first.

Series [3] deals with Oc1ccc(O)c(O)c1. The series can be described thus: purified protein. Conditions: pH 7.5, 20 °C.
The test system of series [4] is Oc1ccccc1O. The series can be described thus: purified protein. Conditions: 50 mM Tris-HCl pH 7.5, ~20 °C.

A word on the Km: it is the substrate concentration at which the rate is half of its maximum. In general, stoichiometry N refers to a count of units in the complex or per binding partner. A word on the kcat: it is the number of substrate molecules converted per active site and unit of time at saturation. For orientation: kcat/Km means the second-order rate constant that governs catalysis at low substrate concentration.

T1 sequence (A0A060T9I8 1-334 limits assumed): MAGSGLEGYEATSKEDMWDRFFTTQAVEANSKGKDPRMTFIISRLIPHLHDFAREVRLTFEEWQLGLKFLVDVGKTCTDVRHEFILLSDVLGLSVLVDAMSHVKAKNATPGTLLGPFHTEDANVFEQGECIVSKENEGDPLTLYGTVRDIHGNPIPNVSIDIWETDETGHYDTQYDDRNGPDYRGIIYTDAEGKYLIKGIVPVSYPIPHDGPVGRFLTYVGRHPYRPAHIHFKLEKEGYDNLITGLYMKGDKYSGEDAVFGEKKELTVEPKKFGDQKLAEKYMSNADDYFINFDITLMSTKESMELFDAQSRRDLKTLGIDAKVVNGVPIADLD

As to `Oc1cccc(O)c1O` [pyrogallol], the Km in series [1] came to 100 ± 20 µM.

In turn, “Blastobotrys raffinosifermentans catechol-1,2-dioxygenase with C-terminal 6His-tag (Acdo1-6hp) (enzyme)” showed a stoichiometry N in series [2] of 2.

Consider “Acdo1-6hp (Acdo1p, catechol-1,2-dioxygenase) (Blastobotrys raffinosifermentans)”, for which, in series [3], the Km amounted to 8 ± 2 µM, the catalytic constant (kcat) came to 17 ± 3.5 s⁻¹ and the kcat/Km turned out to be 2.13e+06 ± 971000 M⁻¹ s⁻¹. For the same compound, in series [4], the Michaelis-Menten constant (Km) is 4 ± 1 µM, the kcat came out at 15.6 ± 0.4 s⁻¹ and the kcat/Km worked out at 3.95e+06 ± 930000 M⁻¹ s⁻¹.
